Key:
[1] = biological target: T1, BRD4 N-terminal tandem bromodomain fragment (BD1-BD2) (Homo sapiens, UniProt O60885 49-460); experiment: NMR; 80 mM KCl; 1:2 BRD4:G4 model; SPR: 10 mM HEPES pH 7.4, 150 mM NaCl, 50 uM EDTA, 0.005% P20, 24 C; MST: PBS, 0.05% Tween-20, 22 C; NMR: 20 mM Na-phosphate pH 7.5, 80 mM KCl, 5% D2O, 25 C; nucleosome: 20 mM Tris-HCl pH 8.0, NaCl 2 M to 250 mM; settings: protein: recombinant; tags: N-terminal His8 (RED-tris-NTA label for MST; Ni-NTA capture for SPR); parallel 3-quartet G4; unimolecular fraction about 50% in the NMR sample
[2] = biological target: T1, BRD4 N-terminal tandem bromodomain …; experiment: SPR; SPR: 10 mM HEPES pH 7.4, 150 mM NaCl, 50 uM EDTA, 0.005% P20, 24 C; MST: PBS, 0.05% Tween-20, 22 C; NMR: 20 mM Na-phosphate pH 7.5, 80 mM KCl, 5% D2O, 25 C; nucleosome: 20 mM Tris-HCl pH 8.0, NaCl 2 M to 250 mM; settings: protein: recombinant; tags: N-terminal His8 (RED-tris-NTA label for MST; Ni-NTA capture for SPR); parallel 3-quartet G4; unimolecular fraction about 50% in the NMR sample
[3] = biological target: T1, BRD4 N-terminal tandem bromodomain …; experiment: SPR; no ligand; SPR: 10 mM HEPES pH 7.4, 150 mM NaCl, 50 uM EDTA, 0.005% P20, 24 C; MST: PBS, 0.05% Tween-20, 22 C; NMR: 20 mM Na-phosphate pH 7.5, 80 mM KCl, 5% D2O, 25 C; nucleosome: 20 mM Tris-HCl pH 8.0, NaCl 2 M to 250 mM; settings: protein: recombinant; tags: N-terminal His8 (RED-tris-NTA label for MST; Ni-NTA capture for SPR); duplex flanks around G4 with opposing C-rich strand; about 50% G4 folded without PDS
[4] = biological target: T1, BRD4 N-terminal tandem bromodomain …; experiment: SPR; 1-200 uM ODN; SPR: 10 mM HEPES pH 7.4, 150 mM NaCl, 50 uM EDTA, 0.005% P20, 24 C; MST: PBS, 0.05% Tween-20, 22 C; NMR: 20 mM Na-phosphate pH 7.5, 80 mM KCl, 5% D2O, 25 C; nucleosome: 20 mM Tris-HCl pH 8.0, NaCl 2 M to 250 mM; settings: protein: recombinant, tags: N-terminal His8 (RED-tris-NTA label for MST; Ni-NTA capture for SPR)

How did the Kd [1] turn out when GGGAGGGAGGGAGGG (structured_DNA) [G4 (SE G4)] was run?
Its Kd is 6 ± 1 µM.

What about the Kd [2] of the same binder?
Its Kd is 5 ± 3 µM.

B1: dsG4 (mixed)
DNA 1: ATCACACTTGGCAGGGAGGGAGGGAGGGATGCAGCTGATCA
DNA 2: TGATCAGCTGCATCCCTCCCTCCCTCCCTGCCAAGTGTGAT
Which Kd [3] does the source give for B1 here?
The Kd was 5 ± 3 µM.

B2: dsCntr (dsDNA)
DNA 1: ATCACACTTGGCTTTCAACCAGTCTATGCTGCAGCTGATCA
DNA 2: TGATCAGCTGCAGCATAGACTGGTTGAAAGCCAAGTGTGAT
Does B2 bind ([4]; blunt)?
Result: no binding

Does CAATCGGATCGAATTCGATCCGATTG (structured_DNA) [ds26] bind ([4]; hairpin)?
Result: no binding

Does CCCCCTCCCCCTCCCCCTCCCCC (structured_DNA) [iM] bind ([4]; i-motif)?
Result: no binding

Reference: article PMC12311796
